Test results from publication PMC314469, “Protein Interaction Networks by Proteome Peptide Scanning” (PLoS Biology, 2004).

T1: Boi1 SH3 (BOI1_YEAST), P38041
T1 chain: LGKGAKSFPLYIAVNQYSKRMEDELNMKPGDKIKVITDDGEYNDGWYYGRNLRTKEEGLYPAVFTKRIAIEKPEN

T2: Yfr024 SH3 (LSB3_YEAST), P43603
T2 chain: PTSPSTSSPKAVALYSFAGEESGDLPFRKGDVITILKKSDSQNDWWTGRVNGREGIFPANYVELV

T3: Boi2 SH3 (BOI2_YEAST), P39969
T3 chain: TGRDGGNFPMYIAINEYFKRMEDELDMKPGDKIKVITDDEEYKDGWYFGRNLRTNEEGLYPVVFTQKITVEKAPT

T4: Yhr016c SH3 (YSC84_YEAST), P32793
T4 chain: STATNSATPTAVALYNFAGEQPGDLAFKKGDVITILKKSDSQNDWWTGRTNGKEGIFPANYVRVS

T5: Rvs167 SH3 (RV167_YEAST), P39743
T5 chain: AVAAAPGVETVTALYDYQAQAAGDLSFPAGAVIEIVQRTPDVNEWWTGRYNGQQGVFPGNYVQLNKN


Experiments:
Experiment in all cases: SPOT array
[1] = molecular target: T1, Boi1 SH3 (BOI1_YEAST), P38041
[2] = molecular target: T2, Yfr024 SH3 (LSB3_YEAST), P43603
[3] = molecular target: T3, Boi2 SH3 (BOI2_YEAST), P39969
[4] = molecular target: T4, Yhr016c SH3 (YSC84_YEAST), P32793
[5] = molecular target: T5, Rvs167 SH3 (RV167_YEAST), P39743

| Binder | normalised SPOT signal, Boehringer light units (BLU); mean over the file's lines of this peptide [1] | normalised SPOT signal, Boehringer light units (BLU); mean over the file's lines of this peptide [2] | normalised SPOT signal, Boehringer light units (BLU); mean over the file's lines of this peptide [3] | normalised SPOT signal, Boehringer light units (BLU); mean over the file's lines of this peptide [4] | normalised SPOT signal, Boehringer light units (BLU); mean over the file's lines of this peptide [5] |
| --- | --- | --- | --- | --- | --- |
| IAYPFYPFKKLGRQ [YGR165W 32-45] | 75.8 | 813 | 32.7 | 230 | 16.3 |
| IIIPPIPSKHSLLK [YDR425W 171-184] | 92.9 | 3190 | 50 | 204 | 22.6 |
| ILKPDIPLRNMLLR [YGL224C 138-151] | 14700 | 12900 | 60 | 2420 | 1640 |
| IAYPGDPLRFHSHL [YAR008W 207-220] | 12 | 93.2 | 143 | 196 | 18.3 |
| IFGPFGPMKEVKIL [YDR432W 144-157] | 63.3 | 195 | 23.4 | 260 | 56.3 |
| IINPDTPHRRIFNQ [YBL019W 264-277] | 314 | 1670 | 71.9 | 530 | 157 |
| IIFPTSPTKLTFSN [YDR130C 112-125] | 45.5 | 314 | 13.9 | 0 | 84.2 |
| IHSPRIPSKDEFIA [YER091C 704-717] | 88.8 | 224 | 42 | 187 | 73.2 |
| IFGPSFPFRSHIDV [YDL224C 170-183] | 138 | 9630 | 31.8 | 6610 | 391 |
| IIFPYDPLKLGTHA [YBR163W 509-522] | 22.3 | 17.2 | 12.7 | 55.6 | 82.3 |
| IFPPLNPARTSLNS [YDR312W 172-185] | 72.9 | 5080 | 31.3 | 829 | 134 |
| ILLPPLPERAYIMD [YGL144C 459-472] | 12.7 | 26200 | 38.9 | 50600 | 14900 |

Next, values leading:

| normalised SPOT signal, Boehringer light units (BLU); mean over the file's lines of this peptide [1] | normalised SPOT signal, Boehringer light units (BLU); mean over the file's lines of this peptide [2] | normalised SPOT signal, Boehringer light units (BLU); mean over the file's lines of this peptide [3] | normalised SPOT signal, Boehringer light units (BLU); mean over the file's lines of this peptide [4] | normalised SPOT signal, Boehringer light units (BLU); mean over the file's lines of this peptide [5] | Binder |
| --- | --- | --- | --- | --- | --- |
| 41.7 | 550 | 20.1 | 112 | 47 | IELPTQPVRKNPEA [YOR042W 147-160] |
| 105 | 391 | 38.1 | 198 | 22.8 | IKYPGSPQRSSSFS [YMR036C 139-152] |
| 95.5 | 170 | 57.1 | 122 | 61.8 | IFNPQNPLKTGFEP [YMR087W 156-169] |
| 30.1 | 209 | 36 | 238 | 65.5 | IFFPNEPIRFVYPY [YPR072W 415-428] |
| 126 | 0 | 23.2 | 77.2 | 20.5 | IELPHDPHKHFHRD [YNL091W 543-556] |
| 119 | 149 | 26.4 | 51.4 | 28.2 | IEQPFGPPKITKDG [YLR259C 61-74] |
| 130 | 176 | 19.2 | 201 | 27.2 | IEVPQSPTKNRVKV [YIL150C 61-74] |
| 95.1 | 86 | 33.5 | 63.1 | 23.6 | IIGPDEPEKSLILK [YMR066W 43-56] |
| 53.2 | 59.9 | 51.8 | 316 | 52.4 | IFDPQDPYRRAQQF [YHR150W 496-509] |
| 37.9 | 878 | 39.8 | 169 | 68.5 | IIKPYLPFKISKWL [YJR054W 69-82] |
